Experimental data taken from the supplement of paper PMC12042874.
± gives the uncertainty stated by the source.

assay: amyloid nucleation score (Sup35N fusion, yeast selection) (log enrichment); library NNK3; higher = more nucleation; inactive = no reads after selection
In short: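 Nucleation score is defined as the DiMSum log enrichment of output over input reads, with centring on the mode score of non-aggregating sequences. A minimum of 100 input reads was required for each sequence. Reads came from Illumina sequencing of plasmid inserts from psi-negative yeast expressing Sup35N fused to peptides of 20 random codons, induced with 100 μM copper sulfate for 24 hours and grown 7 days at 30°C on medium lacking adenine and uracil.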

Substance | amyloid nucleation score
RDYAFNPMFCCATNAKFMKG | 1.96 ± 0.06
REAASQIHSEDKMGGWYHRL | inactive
REAYDLFSCIDYVLNFMFNY | inactive
RECWMKPNLNSNTYSEMICE | 0.011 ± 0.81
REDWRLFNCTTFSAPSSC | -0.217 ± 0.66
REKDSAAHVVE | inactive
RELTRRTYAVANYRLSMSRL | inactive
RELYFSYDSLDYLGMRVWML | inactive
RERIFRICVFRMTSDKMTAT | inactive
RERPRD | inactive
RFCAFERG | inactive
RFHVLINCFSAAGRGNPGSR | 1.69 ± 0.068
RFLLLRSCMSIDWRVGLEIF | inactive
RFLYRYG | inactive
RFMFSLFMNEGNMLHMLRRV | inactive
RFMQWGIFS | inactive
RFNAFSPSPRWPRHFKTMYY | inactive
RFQYLNYCMFMVRCGHYDTS | inactive
RFRMHIIYKRKGIACVRSTS | inactive
RFRSRS | -0.02 ± 1.1
RFSIPMLQRCLWLTGPVCPI | inactive
RFSWWRW | 1.24 ± 0.14
RFVGSGCSGWCSRARDLWWL | inactive

Substance | amyloid nucleation score
RFVTRCREDSVTLKHG | inactive
RFWCLVVCTRLVHMENGRCS | inactive
RFYGYTLY | inactive
RGCTGIKPLPTSWACAFSTS | inactive
RGDMMGLSTENTLLLYDVGR | inactive
RGDVWLELKGLFAIFCYSEL | 2.96 ± 0.062
RGICGNQLCRVMPLLNPHGC | inactive
RGIWGLSLYGVISNVSGLSK | -0.103 ± 0.43
RGMKDCCTRWALRYWDVSVL | inactive
RGNKTI | inactive
RGRIVLNQRLNCDDEDGISE | inactive
RGSKQLDWHSYYNRVLDIGR | -0.296 ± 0.88
RGSPFSWVGPSDRSWSPKFP | inactive
RGTRTGPRDRTLFMSKAVRS | 0.364 ± 0.39
RGWYINTVGYRTRAGHNLCG | inactive
RGYSFCRPSHWWKARCVEGE | inactive
RHAYQRWLIFC | inactive
RHCWVPGCDRQCKWYFEGTS | inactive
RHEHREGNGDVPLNV | inactive
RHLMYPNRNMMVWSSFSDLG | inactive
RHLPQESKRSSVAAISLM | inactive
RHSQFTVVFCNRGRCAGLAA | inactive
RHVNEGLVRGFNPSRTLKGK | inactive

Substance | amyloid nucleation score
RIDRSYACALSWHVLYVNR | 0.436 ± 0.23
RIGQMFLILVFKGLL | inactive
RIIAGWTYRSSQIWYFRDPH | inactive
RIKAYVGLFTVSWGSWGRRR | 1.44 ± 0.14
RIKLRLFTTHEYCSRDRCSD | inactive
RIKSSTYSMSLVGAQ | inactive
RILCRVRYM | inactive
RINSVQGDGVLNLCPRLRVP | inactive
RIPKTKRYHPCYVRLRRSVY | inactive
RIRVSNVCSHQFWLIYGNDT | 2.15 ± 0.057
RISAFWLYTACQFGSDLDTC | inactive
RITGALRAFGSRTFCASCVC | inactive
RITIMFGSLINDLHFCNA | 2.87 ± 0.052
RIWRPLTFMSLDLMIMWCRH | inactive
RIYKNRSSSGILLNERFPGL | -0.46 ± 1.3
RIYTYKRIYRIKVLITWNRL | inactive
RKDLCDFSYLHGDPGAKPEL | inactive
RKEVEGGVPALYDDMRIFES | inactive
RKGLL | inactive
RKGTWPHLGTVNRRVQRWVY | inactive
RKHAGLYLQYE | inactive
RKHLDLT | inactive
RKLFFEFFFCDSVH | inactive

Substance | amyloid nucleation score
RKTSV | -0.071 ± 0.28
RLAGCYYIP | inactive
RLASGLNPFYVRG | inactive
RLDGSMSGCFSTFWNWNIVR | inactive
RLFMGRS | inactive
RLHRLKDFTRNGCEYSSHLS | inactive
RLHTMWTYP | inactive
RLLLSGSSVAICCGQLGLGF | 2.11 ± 0.097
RLLMKV | inactive
RLLSAV | inactive
RLNGRDHL | inactive
RLQMGVLDLFYFD | inactive
RLRGVGIIVGGASQSSSQLR | inactive
RLRLYFRLTKNFHSMNHW | inactive
RLSGNADYNNWTF | 0.436 ± 0.67
RLSGVIGT | inactive
RLSRSRKRYFFGFR | inactive
RLSSLPHCVIM | inactive
RLSWSQPVLNVSTCEGVN | inactive
RLTVYISQRKKHHCLMERSH | 0.221 ± 0.33
RLVRSMAFYNHVIYL | 0.012 ± 0.28
RLVVVYLGTNSTSKEDISC | 0.332 ± 0.23
RLWLRKT | inactive

Substance | amyloid nucleation score
RLYFYDEKCIGCHGSNSLTQ | inactive
RMENWLRCL | inactive
RMGLTEMWHVIPSITSRQYL | inactive
RMGYFSCQVRYSRFLTIPSR | inactive
RMNNLSGEQKQLCDLSLAVR | inactive
RMSLNFNSQPRSLVMGNKYS | inactive
RMSLRAELVKVNLEAIPNWT | inactive
RMSLSGRYRHFWSGRCVCRE | inactive
RMVRIALTL | inactive
RMYPHE | inactive
RMYWAV | 1.02 ± 0.19
RNFRRVSSRF | inactive
RNGVHS | 0.149 ± 0.81
RNIQWRFIP | inactive
RNKVKQTE | inactive
RNMGYVTDNYLYTVLYYDCY | inactive
RNPWKFAATRFRLLQNPLVE | -0.185 ± 0.9
RNSFVLWMVSSV | -0.01 ± 0.45
RNSSNGSVHKQVFAVELKVP | inactive
RNSSYYLMASVDCVRFH | inactive
RPCNVMEKRDSTNIVTRFT | inactive
RPFLSMS | inactive
RPGVC | inactive

Substance | amyloid nucleation score
RPRTRNRRSSISWAKAL | inactive
RPSCMFCPSHAMARLPPVGS | inactive
RQERCGSALPCCCKMIDRRA | inactive
RQGYVADNSTGESDIGDGLG | inactive
RQLTLSRITNLSLK | inactive
RQYRSLRFSVLVYPSHISKG | 0.544 ± 0.17
RRCMFIFSYWPRRVLATVLK | inactive
RRDSDIDRALSLGYASRTTK | inactive
RRIASEWDLTTVPLLLV | inactive
RRKLTAMVNTGEWMSQDDGS | inactive
RRKWHEYSVVMSRTNHMCIW | -0.118 ± 0.58
RRLHSIAFVHRCLIIICCMG | inactive
RRMAETKHGAPMQRVLK | inactive
RRMLIGFHVFSYYWDNEYTR | 0.611 ± 0.14
RRMRFCKTSYEYLCNYAAPK | inactive
RRNMWG | inactive
RRRFCVKGSPGVRFVEWTLR | -0.696 ± 1.1
RRTWGSMYTKVLSISFLGPG | 1.48 ± 0.1
RRVQKERSLKC | inactive
RRVSHLFLRTCCPSWTYYHL | inactive
RRWTTEVKQVHDYCG | inactive
RRYGTDRLLMRYSIENFCVL | inactive
RSAFGIGFPGGYCVLDHYER | inactive

Substance | amyloid nucleation score
RSALILAWHCRSMSLQDAEG | inactive
RSERVRNSKLTVCVIYKYIK | inactive
RSEVRR | -0.013 ± 0.51
RSEWQMTRNYRVWGCYI | inactive
RSFKWNSECILWVSMLFSM | inactive
RSLLGGSKAVYTWDWQPAII | inactive
RSLTLKLTGGVLALMRS | inactive
RSNMHC | inactive
RSNNGSSERGGDIEDLSPNK | inactive
RSQWLFISKKFDLAIYIAV | inactive
RSRET | inactive
RSRILMYYYKISLFYRIKVM | inactive
RSRRFGYSAAISFTIGNLNS | 1.28 ± 0.13
RSRYSSLPLPVV | inactive
RSSFVWTSRHFVV | inactive
RSVFCKKFPDKNMVVFGVHL | inactive
RSVFTTSCH | inactive
RSVVLLAMMSGYRDISIFRT | inactive
RSVVVIYKRCGLYLKS | inactive
RSWSETC | inactive
RTDFHPLYLILWNQRK | 1.9 ± 0.098
RTDYVISNVAMCNSLLC | 2.8 ± 0.082
RTISGYSPSIVGQRDSRGFL | inactive
